Drawing on the RNAGym collection of RNA variant scans (doi:10.1093/nar/gkz1192), this text covers self-cleavage for 68 variants.

B1: CPEB3 Ribozyme (parent)
chain: UAACAGGGGGCCACAGCAGAAGCGUUCACGUCGCAGCCCCUGUCAGAUUCUGGUGAAUCUGCGAAUUCUGCUGUAUAUCUC

The variants in this data set derive from B1. Description: self-cleavage, relative activity (ratio to wild type); higher = more cleavage; in vitro, sequencing. In outline: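 Relative activity compares each variant's cleaved/total read fraction with that of the unmutated ribozyme. To get these fractions, barcoded CPEB3 ribozyme libraries from rounds of error-prone PCR were transcribed with T7 RNA polymerase for 5 hours at 37°C and then given 15 min of DNase I treatment before EDTA was added. The RNAs were reverse transcribed with template switching and sequenced on Illumina, and DNA sequencing linked barcodes to variants. A minimum of 5 reads applied, and three batches were averaged.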
With UAACAGGGGGCCACAGCAGAAGCGUUCACGUCGCAACCCCUGUCAGAUUCUGGUGAGUCUGCGAAUUCUGCUGUAUAUCUC, the self-cleavage is 0.17. With UAACAGGGGGCCACAGCAGAAGCGUUCACGUCGCAACCCCUGUCAGAUUCUGGUGAAUCUGCGAAUCCUGCUGUAUAUCUC, the self-cleavage amounted to 0.13. Take UAACAGGGGGCCACAGCAGAAGCGUUCACGUCGCAACCGCUGUCAGAUUCUGGUGAAUCUGCGAAUUCUGCUGUAUAUCUC: the self-cleavage stood at 0.16.

Regarding UAACAGGGGGCCACAGCAGAAGCGUUCACGUCGCAACCCCUGUCAGAUUCUGGUGAAUCUGAGAAUUCUGCUGUAUAUCUC, the self-cleavage turned out to be 0.41. UAACAGGGGGCCACAGCAGAAGCGUUCACGUCGCAACCCCUGUCAGAUUCUGGUGAAUCUGCGAAUUCUGCUGUAUACCUC: the self-cleavage came out at 0.23. The result for UAACAGGGGGCCACAGCAGAAGCGUUCACGUCGCAACCCCUGUCAGAUUCUGGUGAAUCUCCGAAUUCUGCUGUAUAUCUC reads 0.16. The value for UAACAGGGGGCCACAGCAGAAGCGUUCACGUCGCAACCCCUGUCAGAUUCUGGUGAAUCCGCGAAUUCUGCUGUAUAUCUC was 0.13. The value for UAACAGGGGGCCACAGCAGAAGCGUUCACGUCGCAACCCCUGUCAGAUUCUGGUGAAUCAGCGAAUUCUGCUGUAUAUCUC was 0.18. Regarding UAACAGGGGGCCACAGCAGAAGCGUUCACGUCGCAACCCCUGUCAGAUUCUGGUGGAUCUGCGAAUUCUGCUGUAUAUCUC, the self-cleavage was 0.19. In the case of UAACAGGGGGCCACAGCAGAAGCGUUCACGUCGCAACCCCUGUCAGAUUCUGGUGAAUCUGCGAAUUCUGCUGUUUAUCUC, the self-cleavage is 0.36. The value for UAACAGGGGGCCACAGCAGAAGCGUUCACGUCGCAACCCCUGUCAGAUUCUGGUGAAUCUGCGAAUUCUGCUGUCUAUCUC was 0.28. The result for UAACAGGGGGCCACAGCAGAAGCGUUCACGUCGCAACCCCUGUCAGAUUCUGGAGAAUCUGCGAAUUCUGCUGUAUAUCUC reads 0.31; that for UAACAGGGGGCCACAGCAGAAGCGUUCACGUCGCAACCCCUGUCAGAUUCUGGCGAAUCUGCGAAUUCUGCUGUAUAUCUC, 0.25; that for UAACAGGGGGCCACAGCAGAAGCGUUCACGUCGCAACCCCUGUCAGAUUCUGGUGAAUCUGCGAAUUCUGCUGUACAUCUC, 0.28. The result for UAACAGGGGGCCACAGCAGAAGCGUUCACGUCGCAACCCCUGUCAGAUUCUGGUGAAUCUGCGAAUUCUGCUGUAGAUCUC reads 0.4; that for UAACAGGGGGCCACAGCAGAAGCGUUCACGUCGCAACCCCUGUCAGAUUCUGGUGAAUCUGCGAGUUCUGCUGUAUAUCUC, 0.17. As for UAACAGGGGGCCACAGCAGAAGCGUUCACGUCGCAACCCCUGUCAGAUUCUGGUGAAUCUGCGUAUUCUGCUGUAUAUCUC, the self-cleavage stood at 0.14. Consider UAACAGGGGGCCACAGCAGAAGCGUUCACGUCGCAACCCCUGUCAGAUUCUGGUGAAUCUGCGGAUUCUGCUGUAUAUCUC, for which the self-cleavage amounted to 0.15.

Consider UAACAGGGGGCCACAGCAGAAGCGUUCACGUCGCAACCCCUGUCAGAUUCUGGUGAAUCUGCGAAUUCUGUUGUAUAUCUC, for which the self-cleavage is 0.15. Take UAACAGGGGGCCACAGCAGAAGCGUUCACGUCGCUGCCCCUGUCAGAUUCUGGUGAAUCUGCGAAUUCGGCUGUAUAUCUC: the self-cleavage was determined as 0.26. The value for UAACAGGGGGCCACAGCAGAAGCGUUCACGUCGCUGCCCCUGUCAGAUUCUGGUGAAUCUGCGAAUUCCGCUGUAUAUCUC was 0.23; that for UAACAGGGGGCCACAGCAGAAGCGUUCACGUCGCUGCCCCUGUCAGAUUCUGGUGAAUCUGCGAAUUCAGCUGUAUAUCUC was 0.26; that for UAACAGGGGGCCACAGCAGAAGCGUUCACGUCGCAACCCCCGUCAGAUUCUGGUGAAUCUGCGAAUUCUGCUGUAUAUCUC was 0.56. Consider UAACAGGGGGCCACAGCAGAAGCGUUCACGUCGCAACCCCAGUCAGAUUCUGGUGAAUCUGCGAAUUCUGCUGUAUAUCUC, for which the self-cleavage amounted to 0.18. Consider UAACAGGGGGCCACAGCAGAAGCGUUCACGUCGCAACCCCUGUCAGAUUCUGGUGAAUCUGCGAAUUCUGCAGUAUAUCUC, for which the self-cleavage came to 0.26. The value for UAACAGGGGGCCACAGCAGAAGCGUUCACGUCGCAACCCCUGUCAGAUUCUGGUGAAUCUGCGAAUUCUGCCGUAUAUCUC was 0.25; that for UAACAGGGGGCCACAGCAGAAGCGUUCACGUCGCUGCCCCUGUCAGAUUCUGGUGAAUCUGCGAAUUCUGCCGUAUAUCUC was 0.54; that for UAACAGGGGGCCACAGCAGAAGCGUUCACGUCGCUGCCCCUGUCAGAUUCUGGUGAAUCUGCGAAUUCUGCGGUAUAUCUC was 0.54. Consider UAACAGGGGGCCACAGCAGAAGCGUUCACGUCGCUGCCCCUGUCAGAUUCUGGUGAAUCUGCGAAUUCUGCAGUAUAUCUC, for which the self-cleavage came out at 0.31. As to UAACAGGGGGCCACAGCAGAAGCGUUCACGUCGCAACCCCUGUCAGACUCUGGUGAAUCUGCGAAUUCUGCUGUAUAUCUC, the self-cleavage stood at 0.19. UAACAGGGGGCCACAGCAGAAGCGUUCACGUCGCAACCCCUGUCAGGUUCUGGUGAAUCUGCGAAUUCUGCUGUAUAUCUC: the self-cleavage came to 0.34. The value for UAACAGGGGGCCACAGCAGAAGCGUUCACGUCGCAACCCCUGUCAGUUUCUGGUGAAUCUGCGAAUUCUGCUGUAUAUCUC was 0.13; that for UAACAGGGGGCCACAGCAGAAGCGUUCACGUCGCUGCCCCUGUCAGAUUCUGGUGAAUCUGCGAAGUCUGCUGUAUAUCUC was 0.13; that for UAACAGGGGGCCACAGCAGAAGCGUUCACGUCGCUGCCCCUGUCAGAUUCUGGUGAAUCUGCGAACUCUGCUGUAUAUCUC was 0.25. Take UAACAGGGGGCCACAGCAGAAGCGUUCACGUCGCUGCCCCUGUCAGAUUCUGGUGAAUCUGCGAAUUCUGCUGUAAAUCUC: the self-cleavage was 0.65.

Take UAACAGGGGGCCACAGCAGAAGCGUUCACGUCGCUGCCCCUGUCAGAUUCUGGUGAAUCUGCGAAUUCUGCUGUACAUCUC: the self-cleavage is 0.52. On to UAACAGGGGGCCACAGCAGAAGCGUUCACGUCGCAACCCCUGUCAGAUUCUGGUGAAUUUGCGAAUUCUGCUGUAUAUCUC, for which the self-cleavage is 0.31. The result for UAACAGGGGGCCACAGCAGAAGCGUUCACGUCGCAACCCCUUUCAGAUUCUGGUGAAUCUGCGAAUUCUGCUGUAUAUCUC reads 0.13. Consider UAACAGGGGGCCACAGCAGAAGCGUUCACGUCGCAACCCCUGUCAGAUUCUGGUGAAUCUGCGAACUCUGCUGUAUAUCUC, for which the self-cleavage was 0.33. On to UAACAGGGGGCCACAGCAGAAGCGUUCACGUCGCAACCCCUGCCAGAUUCUGGUGAAUCUGCGAAUUCUGCUGUAUAUCUC, for which the self-cleavage stood at 0.29. As to UAACAGGGGGCCACAGCAGAAGCGUUCACGUCGCUGCCCCUGUCAGAUUCUGGUGAAUCUGCGAAUUCUGCUGCAUAUCUC, the self-cleavage amounted to 0.86. As for UAACAGGGGGCCACAGCAGAAGCGUUCACGUCGCUGCCCCUGUCAGAUUCUGGUGAAUCUGCGAAUUCUGCUGAAUAUCUC, the self-cleavage is 0.89. Consider UAACAGGGGGCCACAGCAGAAGCGUUCACGUCGCAACCCCUGUCAGAUUCUGGUGAAUCUGCGAAUUCCGCUGUAUAUCUC, for which the self-cleavage stood at 0.27. The value for UAACAGGGGGCCACAGCAGAAGCGUUCACGUCGCAACCCCUGUCAGAUUCUGGUGAAUCUGCGAAUUCAGCUGUAUAUCUC was 0.32; that for UAACAGGGGGCCACAGCAGAAGCGUUCACGUCGCAACCCCUGUCAGAUUCUGGUAAAUCUGCGAAUUCUGCUGUAUAUCUC was 0.09; that for UAACAGGGGGCCACAGCAGAAGCGUUCACGUCGCUGCCCCUGUCAGAUUCUGGUGAAUCUGCGAAUCCUGCUGUAUAUCUC was 0.21. The value for UAACAGGGGGCCACAGCAGAAGCGUUCACGUCGCUGCCCCUGUCAGAUUCUGGUGAAUCUGCGAAUACUGCUGUAUAUCUC was 0.24. Take UAACAGGGGGCCACAGCAGAAGCGUUCACGUCGCUGCCCCUGUCAGAUUCUGGUGAAUCUGCGAAUGCUGCUGUAUAUCUC: the self-cleavage was found to be 0.35. The result for UAACAGGGGGCCACAGCAGAAGCGUUCACGUCGCAACCCCUGUCAGAUUCCGGUGAAUCUGCGAAUUCUGCUGUAUAUCUC reads 0.2.

On to UAACAGGGGGCCACAGCAGAAGCGUUCACGUCGCAACCCCUGUCAGAUUCGGGUGAAUCUGCGAAUUCUGCUGUAUAUCUC, for which the self-cleavage turned out to be 0.19. The result for UAACAGGGGGCCACAGCAGAAGCGUUCACGUCGCAACCCCUGUCAGAUUCAGGUGAAUCUGCGAAUUCUGCUGUAUAUCUC reads 0.4; that for UAACAGGGGGCCACAGCAGAAGCGUUCACGUCGCAACCCCUGUCAGAUUCUGGUGAAUCUGCGAAUUCUGCUGUAUAUCAC, 0.13.

In the case of UAACAGGGGGCCACAGCAGAAGCGUUCACGUCGCAACCCCUGUCAGAUUCUGGUGAACCUGCGAAUUCUGCUGUAUAUCUC, the self-cleavage amounted to 0.27.

In the case of UAACAGGGGGCCACAGCAGAAGCGUUCACGUCGCAACCCCUGUCAGAUUCUGGUGAAACUGCGAAUUCUGCUGUAUAUCUC, the self-cleavage is 0.13. The result for UAACAGGGGGCCACAGCAGAAGCGUUCACGUCGCAACCCCUGUCAGAUUCUGGUGAAGCUGCGAAUUCUGCUGUAUAUCUC reads 0.19; that for UAACAGGGGGCCACAGCAGAAGCGUUCACGUCGCUGCCCCUGUCAGAUUCUGGUGAAUCUGCGAAUUCUGCUGUAUAUCGC, 0.65; that for UAACAGGGGGCCACAGCAGAAGCGUUCACGUCGCUGCCCCUGUCAGAUUCUGGUGAAUCUGCGAAUUCUGCUGUAUAUCCC, 0.63. The value for UAACAGGGGGCCACAGCAGAAGCGUUCACGUCGCUGCCCCUGUCAGAUUCUGGUGAAUCUGCGAAUUCUGCUGUAUAUCAC was 0.58; that for UAACAGGGGGCCACAGCAGAAGCGUUCACGUCGCAACCCCUGUGAGAUUCUGGUGAAUCUGCGAAUUCUGCUGUAUAUCUC was 0.14; that for UAACAGGGGGCCACAGCAGAAGCGUUCACGUCGCUGCCCCUGUCAGAUUCUGGUGAAUCUGCGAAUUCUGCUGUAUACCUC was 0.52. Regarding UAACAGGGGGCCACAGCAGAAGCGUUCACGUCGCUGCCCCUGUCAGAUUCUGGUGAAUCUGCGAAUUCUGCUGUAUAACUC, the self-cleavage turned out to be 0.54. On to UAACAGGGGGCCACAGCAGAAGCGUUCACGUCGCAACCCCUGUCAGAUUAUGGUGAAUCUGCGAAUUCUGCUGUAUAUCUC, for which the self-cleavage worked out at 0.25.

UAACAGGGGGCCACAGCAGAAGCGUUCACGUCGCAACCCCUGUCAGAUUCUGGUGAAUCUGCGAAUUCUGCUGUAUAUCUC: the self-cleavage is 0.29.

On to UAACAGGGGGCCACAGCAGAAGCGUUCACGUCGCAACCCCUGUCGGAUUCUGGUGAAUCUGCGAAUUCUGCUGUAUAUCUC, for which the self-cleavage came to 0.21. For UAACAGGGGGCCACAGCAGAAGCGUUCACGUCGCAACCCCUGUCUGAUUCUGGUGAAUCUGCGAAUUCUGCUGUAUAUCUC, the self-cleavage was determined as 0.27. For the variant UAACAGGGGGCCACAGCAGAAGCGUUCACGUCGCAACCCCUGUCAGAUCCUGGUGAAUCUGCGAAUUCUGCUGUAUAUCUC, the self-cleavage amounted to 0.21. The result for UAACAGGGGGCCACAGCAGAAGCGUUCACGUCGCAACCCCUGUCAGAUUCUGGUGAAUCUGCGAAUUCUGCUGUAUCUCUC reads 0.48; that for UAACAGGGGGCCACAGCAGAAGCGUUCACGUCGCAACCCCUGUCAGAUUCUGGUGAAUCUGCGAAUUCUGCUGUAUGUCUC, 0.17.
